According to patent US20230002480A1:

Tests used:
Assay in all cases: cell-based or functional assay
[1] = target: HIV-1 Env pseudovirus 6041.v3.c23 (HIV-1)
[2] = target: HIV-1 Env pseudovirus X2088_c9 (HIV-1)
[3] = target: HIV-1 Env pseudovirus 9004SS_A3_4 (HIV-1)
[4] = target: HIV-1 Env pseudovirus 231966.c02 (HIV-1)
[5] = target: HIV-1 Env pseudovirus CNE8 (HIV-1)
[6] = target: HIV-1 Env pseudovirus 231965.c01 (HIV-1)
[7] = target: HIV-1 Env pseudovirus T250-4 (HIV-1)
[8] = target: HIV-1 Env pseudovirus 191955_A11 (HIV-1)
[9] = target: HIV-1 Env pseudovirus P0402_c2_11 (HIV-1)
[10] = target: HIV-1 Env pseudovirus C1080.c03 (HIV-1)
[11] = target: HIV-1 Env of pseudovirus CNE19 (clade BC) (HIV-1)
[12] = target: HIV-1 Env of pseudovirus Du156.12 (clade C) (HIV-1)
[13] = target: HIV-1 Env of pseudovirus Q461.e2 (clade A) (HIV-1)
[14] = target: HIV-1 Env of pseudovirus 1394C9G1(Rev-) (clade C (T/F)) (HIV-1)
[15] = target: HIV-1 Env of pseudovirus CNE20 (clade BC) (HIV-1)
[16] = target: HIV-1 Env of pseudovirus Ce0682_E4 (clade C (T/F)) (HIV-1)
[17] = target: HIV-1 Env of pseudovirus HIV-16845-2.22 (clade C) (HIV-1)
[18] = target: HIV-1 Env of pseudovirus 246F C1G (clade C (T/F)) (HIV-1)
[19] = target: HIV-1 Env of pseudovirus Ce1176_A3 (clade C (T/F)) (HIV-1)
[20] = target: HIV-1 Env of pseudovirus QH0692.42 (clade B) (HIV-1)
[21] = target: HIV-1 Env of pseudovirus THRO4156.18 (clade B) (HIV-1)
[22] = target: HIV-1 Env of pseudovirus TRO.11 (clade B) (HIV-1)
[23] = target: HIV-1 Env of pseudovirus MS208.A1 (clade A) (HIV-1)
[24] = target: HIV-1 Env of pseudovirus Ce1172_H1 (clade C (T/F)) (HIV-1)
[25] = target: HIV-1 Env of pseudovirus CNE52 (clade BC) (HIV-1)
[26] = target: HIV-1 Env of pseudovirus ZM249M.PL1 (clade C) (HIV-1)
[27] = target: HIV-1 Env of pseudovirus Ce1086_B2 (clade C (T/F)) (HIV-1)
[28] = target: HIV-1 Env of pseudovirus Q23.17 (clade A) (HIV-1)
[29] = target: HIV-1 Env of pseudovirus 6535.3 (clade B) (HIV-1)

N49P9 (antibody) gave an IC50 [1] of 0.089 µg/mL, an IC80 [1] of 0.777 µg/mL and an MPI [1] of 95. It also gave an IC50 [2] of 0.07 µg/mL, an IC80 [2] of 0.252 µg/mL and an MPI [2] of 100. For the same substance, the IC50 [3] was 0.175 µg/mL, the IC80 [3] was 0.751 µg/mL and the MPI [3] was 100. For the same substance, the IC50 [4] was 0.074 µg/mL, the IC80 [4] was 0.244 µg/mL and the MPI [4] was 100. For the same substance, the IC50 [5] was 0.056 µg/mL, the IC80 [5] was 0.26 µg/mL and the MPI [5] was 100. The IC50 [6] was 0.253 µg/mL, the IC80 [6] was 1.16 µg/mL and the MPI [6] was 100. It also gave an IC50 [7] of over 50 µg/mL, an IC80 [7] of over 50 µg/mL and an MPI [7] of 25. The IC50 [8] was over 50 µg/mL, the IC80 [8] was over 50 µg/mL and the MPI [8] was 35. For the same substance, the IC50 [9] was 0.028 µg/mL, the IC80 [9] was 0.085 µg/mL and the MPI [9] was 100. It also gave an IC50 [10] of 0.119 µg/mL, an IC80 [10] of 0.575 µg/mL and an MPI [10] of 100.
Substance N49P9.1 (antibody) has an IC50 [1] of 0.282 µg/mL, an IC80 [1] of 6.78 µg/mL and an MPI [1] of 90. For the same substance, the IC50 [2] was 0.091 µg/mL, the IC80 [2] was 0.392 µg/mL and the MPI [2] was 100. It also gave an IC50 [3] of 0.323 µg/mL, an IC80 [3] of 1.13 µg/mL and an MPI [3] of 100. For the same substance, the IC50 [4] was 0.067 µg/mL, the IC80 [4] was 0.237 µg/mL and the MPI [4] was 100. It also gave an IC50 [5] of 0.228 µg/mL, an IC80 [5] of 0.921 µg/mL and an MPI [5] of 100. For the same substance, the IC50 [6] was 0.474 µg/mL, the IC80 [6] was 2.24 µg/mL and the MPI [6] was 100. It also gave an IC50 [7] of over 50 µg/mL, an IC80 [7] of over 50 µg/mL and an MPI [7] of 7. The IC50 [8] was over 50 µg/mL, the IC80 [8] was over 50 µg/mL and the MPI [8] was 26. The IC50 [9] was 0.06 µg/mL, the IC80 [9] was 0.163 µg/mL and the MPI [9] was 100. The IC50 [10] was 0.156 µg/mL, the IC80 [10] was 0.939 µg/mL and the MPI [10] was 100.
N49P11 (antibody) showed an IC50 [11] of 0.437 µg/mL, an IC80 [11] of 5.5 µg/mL and an MPI [11] of 100. It also gave an IC50 [12] of 2.4 µg/mL, an IC80 [12] of 12 µg/mL and an MPI [12] of 100. It also gave an IC50 [13] of 0.363 µg/mL, an IC80 [13] of 2.15 µg/mL and an MPI [13] of 100. For the same substance, the IC50 [14] was 6.13 µg/mL, the IC80 [14] was 22.3 µg/mL and the MPI [14] was 100. It also gave an IC50 [15] of 5.19 µg/mL, an IC80 [15] of 22.6 µg/mL and an MPI [15] of 100. It also gave an IC50 [16] of 0.091 µg/mL, an IC80 [16] of 0.387 µg/mL and an MPI [16] of 100. The IC50 [17] was 1.72 µg/mL, the IC80 [17] was 8.15 µg/mL and the MPI [17] was 100. For the same substance, the IC50 [18] was 8.48 µg/mL, the IC80 [18] was 20.9 µg/mL and the MPI [18] was 100. For the same substance, the IC50 [19] was 0.946 µg/mL, the IC80 [19] was 6.05 µg/mL and the MPI [19] was 100. The IC50 [20] was 0.55 µg/mL, the IC80 [20] was 2.65 µg/mL and the MPI [20] was 100. For the same substance, the IC50 [21] was 1.84 µg/mL, the IC80 [21] was 10.4 µg/mL and the MPI [21] was 100. It also gave an IC50 [22] of 0.179 µg/mL, an IC80 [22] of 0.937 µg/mL and an MPI [22] of 100. The IC50 [23] was 0.259 µg/mL, the IC80 [23] was 1.94 µg/mL and the MPI [23] was 100. For the same substance, the IC50 [24] was 3.55 µg/mL, the IC80 [24] was 19.2 µg/mL and the MPI [24] was 100. It also gave an IC50 [25] of 0.06 µg/mL, an IC80 [25] of 0.307 µg/mL and an MPI [25] of 100. It also gave an IC50 [26] of 3.64 µg/mL, an IC80 [26] of 17.4 µg/mL and an MPI [26] of 100. It also gave an IC50 [27] of 2.19 µg/mL, an IC80 [27] of 11.7 µg/mL and an MPI [27] of 100. It also gave an IC50 [28] of 0.034 µg/mL, an IC80 [28] of 0.254 µg/mL and an MPI [28] of 100. The IC50 [29] was 8.22 µg/mL, the IC80 [29] was 17.2 µg/mL and the MPI [29] was 100.
N49P18.1 (antibody) was tested, and the IC50 [11] was 2.34 µg/mL, the IC80 [11] was 9.64 µg/mL and the MPI [11] was 99. It also gave an IC50 [12] of 1.88 µg/mL, an IC80 [12] of 6.81 µg/mL and an MPI [12] of 100. For the same substance, the IC50 [13] was 24.7 µg/mL, the IC80 [13] was over 50 µg/mL and the MPI [13] was 68. The IC50 [14] was over 50 µg/mL, the IC80 [14] was over 50 µg/mL and the MPI [14] was 17. It also gave an IC50 [15] of 1.33 µg/mL, an IC80 [15] of 6.36 µg/mL and an MPI [15] of 100. It also gave an IC50 [16] of 3.95 µg/mL, an IC80 [16] of 21.1 µg/mL and an MPI [16] of 96. It also gave an IC50 [17] of over 50 µg/mL, an IC80 [17] of over 50 µg/mL and an MPI [17] of 23. For the same substance, the IC50 [18] was 3.4 µg/mL, the IC80 [18] was 20.2 µg/mL and the MPI [18] was 97. The IC50 [19] was 32.5 µg/mL, the IC80 [19] was over 50 µg/mL and the MPI [19] was 61. For the same substance, the IC50 [20] was over 50 µg/mL, the IC80 [20] was over 50 µg/mL and the MPI [20] was 43. It also gave an IC50 [21] of over 50 µg/mL, an IC80 [21] of over 50 µg/mL and an MPI [21] of 19. It also gave an IC50 [22] of 4.25 µg/mL, an IC80 [22] of 11.7 µg/mL and an MPI [22] of 99. For the same substance, the IC50 [23] was 8.31 µg/mL, the IC80 [23] was 33.3 µg/mL and the MPI [23] was 88. It also gave an IC50 [24] of 46.4 µg/mL, an IC80 [24] of over 50 µg/mL and an MPI [24] of 52. The IC50 [25] was 2.46 µg/mL, the IC80 [25] was 6.65 µg/mL and the MPI [25] was 100. For the same substance, the IC50 [26] was 4.16 µg/mL, the IC80 [26] was 19.8 µg/mL and the MPI [26] was 98. For the same substance, the IC50 [27] was 8.98 µg/mL, the IC80 [27] was 48 µg/mL and the MPI [27] was 92. It also gave an IC50 [28] of 1.16 µg/mL, an IC80 [28] of 6.93 µg/mL and an MPI [28] of 100. The IC50 [29] was 2.06 µg/mL, the IC80 [29] was 11.4 µg/mL and the MPI [29] was 100.
For N49P19 (antibody), the IC50 [1] was over 50 µg/mL, the IC80 [1] was over 50 µg/mL and the MPI [1] was 32. For the same substance, the IC50 [2] was 1.4 µg/mL, the IC80 [2] was 3.76 µg/mL and the MPI [2] was 99. For the same substance, the IC50 [3] was 0.661 µg/mL, the IC80 [3] was 3.09 µg/mL and the MPI [3] was 100. The IC50 [4] was 0.653 µg/mL, the IC80 [4] was 4.55 µg/mL and the MPI [4] was 100. The IC50 [5] was 0.772 µg/mL, the IC80 [5] was 4.84 µg/mL and the MPI [5] was 97. It also gave an IC50 [6] of over 50 µg/mL, an IC80 [6] of over 50 µg/mL and an MPI [6] of 22. It also gave an IC50 [7] of over 50 µg/mL, an IC80 [7] of over 50 µg/mL and an MPI [7] of 7. The IC50 [8] was over 50 µg/mL, the IC80 [8] was over 50 µg/mL and the MPI [8] was 16. For the same substance, the IC50 [9] was 0.448 µg/mL, the IC80 [9] was 2.63 µg/mL and the MPI [9] was 100. The IC50 [10] was 0.682 µg/mL, the IC80 [10] was 3.05 µg/mL and the MPI [10] was 100.
